Assay results reported in patent publication US20250188153A1.

Key:
Assay in all cases: ELISA on coated recombinant protein, OD 405 nm
[1] = target: hMPV A1 F (human metapneumovirus)
[2] = target: hMPV A1 F monomer (human metapneumovirus)
[3] = target: hMPV A1 F trimer (heated) (human metapneumovirus)
[4] = target: hMPV A2 F (human metapneumovirus)
[5] = target: hMPV B1 F (human metapneumovirus)
[6] = target: hMPV B2 F GCN4 (human metapneumovirus)
[7] = target: hMPV B2 F monomer (human metapneumovirus)
[8] = target: hMPV B2 F protein (his-tagged, not trypsin treated) (human metapneumovirus)
[9] = target: hMPV B2 F trimer (heated) (human metapneumovirus)

Row | Binder | EC50 [1] | EC50 [2] | EC50 [3] | EC50 [4] | EC50 [5] | EC50 [6] | EC50 [7] | EC50 [8] | EC50 [9]
1 | MPV467 (antibody, V domains shown) VH: EVQLVESGGGVVRPGTSLRVSCAAFDFNFRDYGMHWVRQAPGKGLEWVAGIWYDGSNKDYADSVKGRFTISRDNSQNTLYLQMNSLRVEDTAVYYCARDPRTHREGALSHFDSWGQGTLVTVSS VL: PNELTQDPAVSVALGQTVRITCQGDSLRNYFAGWYQQKPGQAPLLVLYGENIRPSGIPDRFSGSSSGNTVSLTITGAQAEDEADYYCNSRDNSGNHWVFGGGTRLTVL | 0.38 µg/mL | 0.053 µg/mL | 0.26 µg/mL | 0.12 µg/mL | 0.12 µg/mL | 0.061 µg/mL | 0.06 µg/mL | 0.37 µg/mL | 0.65 µg/mL
2 | MPV487 (antibody, V domains shown) VH: EVQLLESGGGLVQPGRSLRLSCTASGFTFDDYAMHWVRQLPGKGLEWVSGISWNSDNIGYADSVKGRFTISRDNGKNSLYLQMNSLRAEDTAFYYCAKDVRIDYDLLIGHIDYWGPGTLVTVSS VL: TQSPVTLSLSPGERATLSCRASQSFGGYCAWYQQKPGQSPRLLIYDASNRATGVPARFSGSGSGTDFTLTISSLEPEDSAVYFCQQRGNWPIFGQGTRLEI | 0.11 µg/mL | 0.13 µg/mL | – | 0.1 µg/mL | 0.065 µg/mL | 0.071 µg/mL | 0.099 µg/mL | 0.37 µg/mL | 0.54 µg/mL
3 | MPV86 (antibody, V domains shown) VH: QVQLVQSGAEVKKPGSSVKVSCKASGDTFNDVALSWVRQAPGQGLEWLGGIIPFFGTANYAQRFQDRVTITADASTSTAYLELGGLRSEDTAVYYCARGWSCRNITCFMMGYYFYIMDVWGQGTLVTVSS VL: LSLSPGERATLSCRASQSVGNFLAWYQQKPGQTPRLLIQDASNRATGIPARFSGTGSGTDFTLTISSLEPEDFAVYYCQQRSNWPPTFGPGTKVDIK | 0.3 µg/mL | 0.18 µg/mL | – | 0.083 µg/mL | 0.073 µg/mL | 0.12 µg/mL | 0.21 µg/mL | 5.7 µg/mL | –
4 | MPV491 (antibody, V domains shown) VH: QVQLQESGPGLVKSSQTLSLTCTVSGGSISSVTSHWTWIRQHPGKGLEWIGYIFSSGTTYYSPSLRSRLTMSVDTSKNQFSLQLSSVTAADTAMYYCARGIYCGDSCYKGTDYWGRGTLVTVSS VL: IRLMTQTPVTLPVTPGEPASISCRSSQSLLHSNGYNYLDWYLQKPGQSPQLLIYRGSTRASGVPDRFSGSGSGTEFTLKISRVEAEDVGVYYCMQGLQTPYTFGQGTKLESR | 1.5 µg/mL | 1.3 µg/mL | 1.1 µg/mL | 2.2 µg/mL | 2 µg/mL | 0.5 µg/mL | 0.48 µg/mL | 2.1 µg/mL | 1.7 µg/mL
5 | MPV489 (antibody, V domains shown) VH: EVQLLESGGGLVQPGGSLRLSCAASKFTFNNYEMNWLRQAPGKGLEWVSSISSSGDTIHNADSVKGRFIISRDNAKNSLHLQMNGLRAEDTAVYYCARAGSGWAYDAFDIWGLGTMVTVSS VL: LSASVGDRVTITCRASQSISSFLNWYQQKPGKAPKLLMYAASSLPVGVPSRFSGSGSGPEYTLTISNLQPEDFATYYCQQGYSSPPTFGGGTRLEVK | 5 µg/mL | 7 µg/mL | 4.5 µg/mL | 9.3 µg/mL | – | 2.3 µg/mL | 1.3 µg/mL | 4.2 µg/mL | 18 µg/mL
6 | MPV488 (antibody, V domains shown) VH: EVQLVQSGFEVKKPGASVKVSCKASGYNFNNYGISWVRQAPGQGLEWMGWISAYTGNTNEAQKFQGRVSMTTDTSTSTAYMEVRSLRSDDTAVYYCARDIGSSMFYSYFYGMDVWGQGTTVIVSS VL: SLSVSLGERATINCKSSESVLYNSNNENYLDWYQQKPGQPPKLLIYWASTRASGVPDRFSGSASGTDFTLTISSLQAEDVAVYYCQQYYSTPRTFGQGTKVEIK | – | – | – | – | – | 0.073 µg/mL | 0.063 µg/mL | – | –
7 | MPV485 (antibody, V domains shown) V domain 1: EVQLQEPGPGLVKPSETLSLTCTVSGGSISSTNSFWGWVRQPPGKGLEWIGSIYYSGTTYYNSSLKSRVTISVDTSKNQFSLRLSSVTAADTAVYYCARQGLTSSWYDGSGLDVWG V domain 2: SYELTQPPSVSVSPGQTASITCSGDKLGNKYACWYQQRPGQSPVLVIYQDTKRPSGIPERFSGSNSGNTATLTISGTQAMDEADYYCQAWDSNTVVFGGGTKLTVL | 0.11 µg/mL | 0.24 µg/mL | 0.32 µg/mL | 0.086 µg/mL | 0.078 µg/mL | 0.16 µg/mL | 0.18 µg/mL | 0.18 µg/mL | 0.36 µg/mL
8 | MPV477 (antibody, V domains shown) VH: EVQLVQSGAEVKKPGASVEVSCKTSGYTFTDYYLHWVRQAPGQGLEWMGWINPRSGGTKYGQKFQGRVTMTRDTSISTAYMDLRGLRSDDTAVYYCARAPLLTVYAVAHRSGENRFDPWGQGTVTVSS VL: QPPSLSGAPGQTVTISCTGSGSNIGAGYDVNWYQCLPGTAPKLLMFDNSNRPSGVPDRFSGSRSGASASLAITGLQAEDEADYYCQSYDSGLSGWVFGGGTKLTVL | 0.083 µg/mL | 0.049 µg/mL | 0.087 µg/mL | 0.023 µg/mL | 0.02 µg/mL | 0.037 µg/mL | 0.21 µg/mL | 0.063 µg/mL | 0.063 µg/mL
9 | MPV454 (antibody, V domains shown) VH: EVQLVESGGGLVKPGGSLRLSCSTSGFVFSSYAMHWVRQAPGKGLEHVSAISSTGDNTHYADSVKGRFTISRDNSRGRLYLQMTSVRPEDAALYYCVKDLYSGRFYYFLDDWGQGTRIIVSS VL: DIQVTQSPSSLSASVGDRVTISCRASQNISNYLNWFQQRPGKAPKLLIYVASTLQSGAPSRFSGSGSGTDFTLTITDLQPEDFATYYCQQSYNTPPITFGQGTRLEIK | 0.49 µg/mL | 0.052 µg/mL | 0.14 µg/mL | 0.12 µg/mL | 0.12 µg/mL | 0.068 µg/mL | 0.046 µg/mL | 5.2 µg/mL | 0.15 µg/mL
10 | MPV482 (antibody, V domains shown) VH: EVQLVQSGGGVVQPGRSLRLSCAASGFTFSSFAMHWVRQAPGKGLEWVALISDDGNNKYHADSVKGRFTISRDSSKNTLYLQMNSLRGEDTAVYYCARDGSVVGAAAHCDHWGQGTLVTVSS VL: SYELTQPPSVSVSPGQTARITCSGDALPNQCAYWYQQKPGLAPVLLIYKDKERPSGIPERFSGSISGTTVTLTISGVQAEDEADYYCQSSDSSSTVVFGGGTKLTVL | 0.13 µg/mL | 0.29 µg/mL | 0.35 µg/mL | 0.057 µg/mL | 0.072 µg/mL | 0.092 µg/mL | 0.2 µg/mL | 0.33 µg/mL | –
11 | MPV486 (antibody, V domains shown) VH: EVQLVESGGHLVQSGGSLRLSCAASGFTFSNYILNWVRQAPGKGLEWISYITGGSSAIYYADSVKGRFTISRDDAKNSLYLQMNNLRAEDTAVYYCARSHGYDSSGYYYYFAMDVWGQGTTVTVSS VL: QSVLTQPPSASGTPGQRVTISCSGSNSNIESNTVNWYQQIPGTAPKLLIYSDNRRPSGVPDRFSGSKSGTSASLAISGLQSEDEADYYCAAWDDSLIGYVFGTGTKVTV | 0.053 µg/mL | 0.088 µg/mL | 0.22 µg/mL | 0.043 µg/mL | 0.1 µg/mL | 0.1 µg/mL | 0.11 µg/mL | 0.23 µg/mL | 0.24 µg/mL
12 | MPV478 (antibody, V domains shown) VH: EVQLVQSGAEVKKPGASVKVSCNASGYTFTGYYIHWVRQAPGQGLEWMGWINPRSGGTNYAQKFQGRVTLTRDTSITTAYMDVTRLRPDDTAVYYCATTREGIVLMPRGRGDDALDTWGQGTTVIVSS VL: DIVMTQSPVSLTVSLGERATINCKSSQSVLSTSNNENYLAWYQQKPGQPPNLLIYWASTRESGVPDRFSGSGSGTDFTLTISSLQAEDVAVYYCQQYFATPITFGPGTKVDVK | 0.059 µg/mL | 0.012 µg/mL | 0.024 µg/mL | 0.021 µg/mL | 0.022 µg/mL | 0.02 µg/mL | 0.02 µg/mL | 0.027 µg/mL | 0.02 µg/mL
13 | MPV481 (antibody, V domains shown) VH: EVQLVQSGGGLVKPGGSLRLSCAASGLPFNNAWMNWVRQAPGKGLEWVGRIKSKIDGGTTEYAAPVKGRFTISRDDSENTLYLQMNSLRTEDTAVYYCTTEYYALLSGNYSDCWGQGTLVTVSS VL: DIVMTQSPFSLSLSPGERATLSCRASQSIKRAYLGWYQQKPGQAPRLLIYGASNRATGIPDRFSGSGSGTDFTLTISRLEPEDFAVYYCQQYGDSPGGSFGQGTKLEIR | 0.31 µg/mL | 0.17 µg/mL | 0.28 µg/mL | 0.11 µg/mL | – | 0.11 µg/mL | 0.2 µg/mL | 0.16 µg/mL | 0.31 µg/mL
14 | MPV414 (antibody, V domains shown) VH: QVQLVQSGPEVKKPGSSVMVSCKTSGGNFNNFAISWVRQAPGQGLEWMGGIVPIFGTANYAQKSQDRVTITADPSSSTAYLQLSSLTSDDTAIYYCARDLGRSSNYYYYSVFESWGQGTLVTVSS VL: DIVMTQSPATLSLSPGERATLSCRASQSVGDKLAWYQQKPGQAPRLLIYGASTRATDIPARFSGSGSGTEFTLTVSSLQPEDFAVYYCQQYENWPPITFGQGTRLEIK | 0.15 µg/mL | 0.074 µg/mL | – | 0.034 µg/mL | 0.034 µg/mL | 0.061 µg/mL | 0.19 µg/mL | 1.8 µg/mL | –
15 | MPV456 (antibody, V domains shown) VH: QVQLQESGPGVVKPSGTLSLTCGVSGGSISSSYWWSWVRQPPGKGLEWIGEIYHSGSTNYNPSLKRRVTISVDKSKNQFSLKVTSVTAADTAVYYCARGPIQYYDILTEERVGYCDYWGQGTLVTVSS VL: TLSASVGDRVTITCRASQSISSWLAWFQQKPGKAPKLLIYKTSSLESGVPSRFSGSGSGTEFTLTISSLQPDDFATYYCQEYNSYSRTFGQGTKVEIK | 1.4 µg/mL | 3.5 µg/mL | 1.8 µg/mL | 0.42 µg/mL | 0.49 µg/mL | 0.69 µg/mL | – | 0.61 µg/mL | 1.8 µg/mL
